The stoichiometry N is the number of molecules, sites or subunits per partner or assembly.

Results on 1 substance are retold here after paper PMC6304784.

Assay [1] deals with N-terminally GFP-tagged full-length wild-type MyD88 (human) (UniProt Q99836). Briefly: single-molecule fluorescence fluctuation spectroscopy (brightness B parameter, time-traces, intensity histograms); GFP-tagged protein freely diffusing in the cell-free expression mixture on a confocal microscope, 488-nm laser; dilution series of the DNA template giving 0 to about 320 nM protein; mutants compared at 150 nM; samples diluted 10 times in buffer A.

The target in assay [2] is mCherry-tagged full-length wild-type MyD88 (human) (UniProt Q99836). Put plainly: two-colour single-particle coincidence spectroscopy (seeding assay); mCherry-tagged full-length MyD88 filaments spun down and sonicated ('seeds') added to GFP-tagged full-length MyD88 expressed over a range of concentrations (10 nM and above); 488 nm and 561 nm lasers; traces of 180 s.
The target of assay [3] is N-terminally GFP-tagged full-length wild-type MyD88 (human) (UniProt Q99836). Put plainly: fluorescence correlation spectroscopy (FCS); GFP-tagged protein in the cell-free expression mixture; single diffusing species model; hydrodynamic radius normalised to sfGFP.

mCherry-tagged full-length wild-type MyD88 (human), sequence (Q99836 whole entry): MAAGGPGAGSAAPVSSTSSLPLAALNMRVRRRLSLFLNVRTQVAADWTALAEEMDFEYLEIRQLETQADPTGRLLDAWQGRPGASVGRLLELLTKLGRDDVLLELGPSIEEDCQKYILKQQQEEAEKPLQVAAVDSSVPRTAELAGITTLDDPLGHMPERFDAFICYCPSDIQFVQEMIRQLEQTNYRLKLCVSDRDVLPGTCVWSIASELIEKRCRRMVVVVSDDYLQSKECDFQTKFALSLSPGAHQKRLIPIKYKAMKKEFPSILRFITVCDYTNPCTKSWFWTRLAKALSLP

With “N-terminally GFP-tagged full-length wild-type MyD88 (from UniProt Q99836 1-296) (natural protein)”, in assay [1], the critical concentration for aggregation (Cc) was determined as 150 nM and the stoichiometry N was over 100 proteins. In addition, in assay [2], the critical concentration for polymerisation in the presence of seeds was 10 nM. In addition, the stoichiometry N (monomeric units) in assay [3] is over 100.
